We go through eight molecules from patent US12077763B2, “RNA-based control of powdery mildew” (Greenlight Biosciences, Inc., priority 2021, dated 2024).

The labels stand for the following.
B1: GS1824: dsRNA trigger SEQ ID NO 200; gene target WD repeat domain-containing protein 83 (nucleic acid)
DNA: CTTGCCATCTCTTCCAACCTTTCTCTTACCATCAAACTTTGTTCCTTTTACTGTGATCCTCTCGACAAGTTTTCCGCTCAATGTATCCCAGACAACCACTTCACCATCTTGTCCTTCAATATTCTCGTTTCCAGAAAGTATCCATCTCTCTCTTCCACCAAAACAGTTCCATATTCGAAATTCTTTGTTTTCCCAGCAATCTGCACGATAACTCCTTAGTAATTTACCATTCTCGGTATCCATTAGTCTAAGCTGACTATCCAGTCCACCTACAAGTAGACCTTTTTTATCTATTGTCTTCCTTAGACATGTCACAGGAGCACCAATAACATCGACAACAATTTGTCCCATTCTAATGTCGTATTTCCTAACTTTTCCATCGACACTACTGGTCCATATCTCGCTATCACTCGCTAATACGCAGCTCACACTATCACCAGCCTCTGTTAGAACCATAACTGGCTTAGCACTCGAGCTCTTCACATCCCAGATACGAGCACTGGCATCAAAACCTCCACTAATAAGAAGACTGGCTCCATCCCCAGCAAAAGTAACGGTATTGATGCGTGCCGAATGACCATTGTTGCCACTAAAT
B2: GS1830: dsRNA trigger SEQ ID NO 178; gene target Regulator of nonsense transcripts 1 homolog (nucleic acid)
DNA: CCGAGTTAAAGCTACATTTAAACGTCTTGGGTCACTTAAGAACCCAATTCCTTGATGGTCATTTGATCGAACACATGATAAAACAATGAAGTCTTTTTCACGCCCTTGAAAAGCATCGACTGAAGCAACTTCAATTTCCCTGTAGTTTTCTTTTTTAAAAGTACCAGTGTTTTGCATAGAGCTTACAACGTAACTTCGCTGACCTTCGTAAGGTGTAATAACTCCAATATCGGCAGGCTGAACACCTGCTTTGAAAAATCGGGTTACTATTTTTTCAACATTAGAAGCCTCTGTGCGATTAAGATATGATGTTCCTGAAGCAGAAATCTCTTCATTTCCGAGATTAGACCAAAACATCATCGGTGTATCTCCAACTGGCCAAGGAAAGTCAACTTCATCTCTAAGCCGCTCTTGCATCGTCACACCATTCTGGAGAGTTCCTTCATAGAACATATTTGACGGAAACTCTGATAGGCATGGATGCATACGATACTGGATATTGAGTCGAATAGGGTGCATTTCCAACATGACTAGACGTTCAAAAAGTGACTGATTTAAACCTGCTTTGGCAGCTTTTTTATTCATAATAAC
B3: GS1827: dsRNA trigger SEQ ID NO 195; gene target Ubiquitin-like modifier-activating enzyme 1 (nucleic acid)
DNA: AAAGTTATCGCCGAAGTCGCAGAATATATATCCAAATAATCCAAAGGTTTCAGTTATTACTACATATATTCCCTTCTCATGTAGATACTGGGAGATTATGAGCTGGTCTTTCAGTGGAATATCTGTCAATATTACAGCTTGATATGAATCAAACTGGGAGAGATCAGAAACTAAGCTTGTGGAGCTGTGAATCTTAACAGGGGTGTAAGCATTTAGTTCCGAAACTCGTTGAGCTGAGACAATATCTCTAGGTTTTCCTATATCTTCTGGGTTAAGAAAGAATTGAGATGATAGGTCAGCGATAGTTGCGGGAGCGGGATCGTATAATGTTAGACTTTTAACTCCAGCCAGAGCTATATTCTTAGCTATTTCGATACCAAGACCTTTCAAGCCAATAATAAGAATATTCGATGCACTCATTCGTTTCATAGCCTCGTGTCCAAGAACGTAGAGTTGCCTACTGTATAAAGACTCATCGATAACATTATTATTTTCTTGTGACTCATCAACTTCCATCTTCATCTTGTCTTCAATTTTACTGACTTCACTCATCTTGAATACTTCCTGTAAATCCAATTTACATCAACTGAATTA
B4: GS1825: dsRNA trigger SEQ ID NO 141; gene target Serine/threonine-protein kinase cek1 (nucleic acid)
DNA: CGACCGATTAATCCCATTCTAGACAAGCCAAAATCTGTCAATTTAAGATGGCCTTTCTGATCAATTAAGAGATTGTCAGGTTTAAGATCTCGATGAACTATCCCTCGACTATGAAGATGTTTGACCCCTAGGATAACCTCACCTAAGTATTTTCTTGCCCAATCCTCTTGAAGACCGCCTAAAGCCTTTATAAGTGACGCACAGTCGCCTCCATTCAAATATTCCATAACCAAGTAGAGATAGTCTTTACTTGAGAATGTCCAGTATAATTTAGCTACAAAGTCACTCTCACCTTGCCACATCATGATTGCACGTTCAGCTTTAACGTTAGTTACCTGATTTTTGGCTACCATATCGGCTTTTTTAAGTACTTTGATTGCATAGTAGTCACCTGTAGATTTTTTCTTGGCAAGATAAACACTTCCGAATGCACCTTTACTGATAGGTTTTATTATTTCAAAGTCTTTTATGGAGGGTGGAACAATACGGGCTTGGGGAACACCGACAGTTGATAAACGAGGTGATGGAGGTAGTCGAGATGGGTCAGAGCCTGCAGCAGAAGATTGACGTCTATGGTGATGAGGTAGAAGAGCA
B5: GS1833: dsRNA trigger SEQ ID NO 151; gene target Eukaryotic translation Initiation factor 3 subunit G (nucleic acid)
DNA: ACCTCACTAGGGCCTTCAGTAGTTTCATTAATACTAGTTAAAGCATCTCCGCTGTTTTCTTCACCAATTGGAGCCATTGTATCTTTAAAGGGACATCGGGCTGTAAAATGCTCTCCATTACATATACGACATTTAACTTTCTTATCTTTTAATTTGTCTTTCATTATTCCTGCCTCTGTTTTTTCATCTTTGGCATCTTTTTTCCAGTTGGCACTCGGTCTGAAAGTTATATTTTCACCAATAGATGTGGTTGAGCTATCTGGTCCGGGTTGATCTTTAGCAGAGAGTCCAAATTTACTCCACTGCTTTCTCTCGGCAACTCTAGGATTTACAATTTCTTTGTGTGTAGTGAAACGAATTCGTCTGGTATATTTGATCTTTTTTCCATCTTCATCGATTCGATAACTTACGATAGTTTGAGAGCCATCTTTATTAGTTGTTGTAGTTGTAGGAGGAAGTTGTTCTTCAATCCGGTCAACGGAAAGATCTTCATCGTCGGCCCAGTCAGCGCGAACAGATTGTTTAGACATTTTTCAAAATATTTTAATTAAATACTTGCAAATGGAAAGCTTGTAAATTCAAGCAAGTAT
B6: GS1831: dsRNA trigger SEQ ID NO 115; gene target glycosyl_partial (nucleic acid)
DNA: CTGAATTGTTTTGAGACTGTTTATTACGAAACCCATTACTTTTGTCTTTGATATGGAATCTCCGATTGACAAACAATGTTTCGTCAGGTTTTGGTTCATAGCTAGTGGTCATTCCAATGGCACCTCTAATGTTATTAATAACAGTATTGAGTGATTGCTCAGGCATTAAACAAGCTGGGCGACATTCGGGTATATTTGAAACAGATTGTAAAATTTTGTCACGAAGGGTTGTTTCGTCTTGAAAATTTGGTCGCAAGCATAACTGGAGATTACGAAGTTGTTTTACTAATATTTCAAATACATCAAGCAATGGCTTTTCAGAATGTTGACTAGAAAGAAGTTGCAAGGTAATTTTGTTCCATTCATTCTGTGCATTTCTCTGTTTTTGTGGTCCTTCAAATTGGCCAAGCATTAATTGAGAGATTTCATCGATCTGTATTGCATTGCTACAGCGATGATGGTAGAAGTCTAATGCTTCTTTGTTAAACATTAAGAACATAGAAGACAGGATGTCTTTTTCATTTTCGATGCTCGCTAATTCGCATTTTTTCAAAAAGATGTTTAACTTGAAGTTATAGCTATCATCTTTT
B7: GS1826: dsRNA trigger SEQ ID NO 180; gene target Adenosylhomocysteinase (nucleic acid)
DNA: CGCGAGTAAGATTATATGACGACCATTCTTCATTAGAAAACGATCGACTTGGGGCTTAATATTTTGAACGCTTTGTGCATTAGCTTTAAGCCATGCGACATCTATTTCAATGTCAAAGTGTCCAATATTGCAAACAATAGCATCGTTAGGCATAACTTCAAAATGTTTTCCTACTAAAATGTCACGGCATCCTGTAGTAGTTACGAAGATCTGAGCTTGACTTGCGGCCTTTTCCATTGTGGTGACTTGGAAGCCAGAAACTGCAGCTTGTAAAGCATTTATAGGGTCAACCTCAGTAATTAGTACACGTGCACCCATACCCTGAAGAGCTAATGCACACCCTTTTCCAACATCACCAAAACCAGCAACAACGGCAATTTTTCCAGCAATCATAACATCGGTGGCTCGTTTAATACCATCGATCAAAGACTCGCGGCAGCCATAGAGATTGTCAAACTTAGACTTTGTGACAGAATCATTGACGTTAACCGCAGGCACGAGCAAAGTATTGTTTTTTAACATTTTATATAAATGGTGAACTCCAGTAGTGGTTTCCTCAGATACACCAAAGCAACCTTTTAACATTTCTGGATA
B8: GS1823: dsRNA trigger SEQ ID NO 158; gene target Guanine nucleotide-binding protein subunit beta-like protein (nucleic acid)
DNA: TAGCCAGTATCTGTTAGGCGAAAAAACAAGCGCATGGATCAAATCACCAGCATTGAGAGAATATAAATGCTTAGACTCATTTAGATCCCACAACATAGTAGTCCCATCTTTCCCACCTGATGCGCAGAGAGAACCGTCCGGCGAGATGGTGACAGTATTTATGTAACCATTGTGGCCAATATGGTCAGTCTGTAGTTTACAAGAGGATAATTCCCAGACCTTCACAAGTTTGTCCCAGCTACTGCTGACAATGACTGGATTTTGTGGATTTGGGCTGAATCGTACACAAGATACCCAATCATTATGACCTTTTTCAGTAATGGTGAACTTGCAATCACCTAGAGTATTCCAGAGCTTAATTGTTCGATCACGAGAGCCCGAGACAATTTGCCTGTTGTCAGCGGAAAAAGAAACAGAAAGAACATCATTTGTGTGGCCGACAAATCTCCTTGTTGTGGTTCCTGTTGCAAGCTCCCAGAGTCGGAGAGTTTTATCCCAAGAAGCAGATAGAGCATAAGCACCATCAGAAGAAATTACACAGTCGGAAACTATATGAGAGTGGCCATGAAGTGATCGCTTTGGGTAACCGTAGGAA

The first series deals with E. necator. Put plainly: Leaf disc assay, dry inoculum (settling tower), decrease in disease severity / hyphal growth (Example 2). The settings on record: decrease in disease severity (hyphal growth) relative to untreated control; time point 1 (untreated control hyphal growth ≥50%); value ± SE.
Take B1: the “% decrease =/− SE TP1” value stood at 26 ± 7%.

As for B2, the “% decrease =/− SE TP1” value was found to be 36 ± 4%.

For the molecule B3, the “% decrease =/− SE TP1” value amounted to 45 ± 2%.

B4: the “% decrease =/− SE TP1” value is recorded as 28 ± 5%.

As for B5, the “% decrease =/− SE TP1” value is 12 ± 5%.

In the case of B6, the “% decrease =/− SE TP1” value is 34 ± 6%.

With B7, the “% decrease =/− SE TP1” value was 19 ± 6%.

Consider B8, for which the “% decrease =/− SE TP1” value was 31 ± 8%.

The same series, now with this note: decrease in disease severity (hyphal growth) relative to untreated control; time point 2; value ± SE.
Consider B1, for which the “% decrease =/− SE TP2” value is on record as 19.5 ± 8%.

For B2, the “% decrease =/− SE TP2” value is 24 ± 5%.

On to B3, for which the “% decrease =/− SE TP2” value is listed as 40 ± 4%.

Regarding B4, the “% decrease =/− SE TP2” value came to 18 ± 6%.

For the molecule B5, the “% decrease =/− SE TP2” value amounted to 7 ± 5%.

For the molecule B6, the “% decrease =/− SE TP2” value was 19 ± 6%.

For the molecule B7, the “% decrease =/− SE TP2” value is 6 ± 5%.

In the case of B8, the “% decrease =/− SE TP2” value is 26 ± 8%.
